1 substance from patent US20120004133A1 can be followed below.

The assay deals with Ang II type 1 receptor on rat vascular smooth muscle cells (rat) (UniProt P25095). The assay is described as follows: cell-based or functional assay.
Sequence of UniProt P25095 (P25095 whole entry): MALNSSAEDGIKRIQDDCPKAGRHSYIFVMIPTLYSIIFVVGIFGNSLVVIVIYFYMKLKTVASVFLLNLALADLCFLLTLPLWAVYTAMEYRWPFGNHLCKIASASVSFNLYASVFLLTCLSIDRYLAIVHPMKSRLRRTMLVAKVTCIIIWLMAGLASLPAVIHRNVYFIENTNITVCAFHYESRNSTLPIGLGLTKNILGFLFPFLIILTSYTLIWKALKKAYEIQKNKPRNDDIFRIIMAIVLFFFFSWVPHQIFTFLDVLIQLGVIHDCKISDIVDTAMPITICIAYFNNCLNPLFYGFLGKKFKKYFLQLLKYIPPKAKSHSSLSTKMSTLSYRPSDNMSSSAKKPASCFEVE

Substance “[Sar1, Gly8]-Ang II acetate hydrate (peptide)” registered an MFG-E8 protein level in old VSMC (Western blot) of 40%.
